Test results: article PMC3945225, “RBPJ, the Major Transcriptional Effector of Notch Signaling, Remains Associated with Chromatin throughout Mitosis, Suggesting a Role in Mitotic Bookmarking”

Molecular target: Flag-RBPJ (mouse, UniProt P31266-2 1-487)
Assay: EMSA; 1 nM DNA; 12 mM Hepes pH 7.9, 10 mM Tris-HCl pH 7.5, 60 mM KCl, 8% glycerol, 4 mM MgCl2, 0.02% NP40, 30 C; 5% PAGE 0.5x TBE
Settings: protein: recombinant; tags: Flag; label: 32P (T4 PNK); blunt

Flag-RBPJ, sequence (P31266 other isoform, or with tags, fused parts or gaps): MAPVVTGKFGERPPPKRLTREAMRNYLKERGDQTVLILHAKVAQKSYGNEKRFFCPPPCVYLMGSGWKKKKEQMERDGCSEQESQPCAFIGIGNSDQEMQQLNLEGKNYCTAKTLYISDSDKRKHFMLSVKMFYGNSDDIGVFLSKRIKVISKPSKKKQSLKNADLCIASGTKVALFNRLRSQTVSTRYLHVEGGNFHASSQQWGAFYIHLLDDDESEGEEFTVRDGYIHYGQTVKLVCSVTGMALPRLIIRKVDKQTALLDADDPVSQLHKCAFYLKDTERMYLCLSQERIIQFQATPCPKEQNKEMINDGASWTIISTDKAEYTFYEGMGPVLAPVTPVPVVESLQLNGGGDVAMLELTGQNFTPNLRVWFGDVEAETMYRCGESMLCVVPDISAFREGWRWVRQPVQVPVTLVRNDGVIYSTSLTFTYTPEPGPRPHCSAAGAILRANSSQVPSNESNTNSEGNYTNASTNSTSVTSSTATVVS

B1: 16 bp RBPJ motif DNA (dsDNA)
DNA 1: CACTGGGAACCTACCC
DNA 2: GGGTAGGTTCCCAGTG
  binding result: binds
